Source: patent US20180185502A1, “IMMOBILIZATION OF BIOMOLECULES BY SELF-ASSEMBLED NANOSTRUCTURES” (priority 2015, published 2018)

Columns and labels:
Type in all cases: biochemical
R. rubrum RubisCO [1] = target: T1, R. rubrum RubisCO (Rhodospirillum rubrum, UniProt P04718); experiment: RubisCO functional assay (activity of free, nanotube-bound or monomer-exposed enzyme); conditions: initial functional assays
T1 sequence (P04718 1-466): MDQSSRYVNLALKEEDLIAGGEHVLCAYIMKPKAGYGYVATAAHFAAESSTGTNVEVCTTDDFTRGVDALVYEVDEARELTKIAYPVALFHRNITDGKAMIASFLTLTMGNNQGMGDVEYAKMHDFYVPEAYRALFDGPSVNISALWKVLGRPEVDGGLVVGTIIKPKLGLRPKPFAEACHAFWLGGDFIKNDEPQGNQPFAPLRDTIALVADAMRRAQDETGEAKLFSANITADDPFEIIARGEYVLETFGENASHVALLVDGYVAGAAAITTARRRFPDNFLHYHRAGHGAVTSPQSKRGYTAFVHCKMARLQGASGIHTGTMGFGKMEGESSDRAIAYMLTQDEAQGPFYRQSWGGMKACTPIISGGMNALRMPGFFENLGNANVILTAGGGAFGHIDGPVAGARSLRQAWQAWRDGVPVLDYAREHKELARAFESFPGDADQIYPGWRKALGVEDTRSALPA

R. rubrum RubisCO [2] = target: T1, R. rubrum RubisCO; experiment: as above
Method: Although the samples were identical in purity and composition, the resultant activity of the bound RubisCO varied. […] Thus, by pelleting the nanotube by ultracentrifugation, followed by additional washing of the pellet, prior to adding the enzyme, the activity increased dramatically to 67%.
Nanotubes for this experiment were set up with 10 mM monomer in 1 mL buffer and aged for ˜5 days at room temperature. Nanotubes were then isolated using ultracentrifugation and re-suspended back in 1 mL buffer with 0.1 mg of R. rubrum RubisCO. This suspension was incubated at 1° C. for 15 hrs prior to ultracentrifugation and re-suspension of the final nanotubes in 1 mL buffer.

R. rubrum RubisCO [3] = target: T1, R. rubrum RubisCO; experiment: Stability of nanotube-RubisCO co-assembly to proteolysis by subtilisin over 45 minutes; conditions: within 45 minutes; FIG. 5
Method: Subtilisin is a non-specific, serine protease capable of rapidly degrading proteins by amide bond cleavage. The stability of the nanotube-RubisCO co-assembly to proteolysis by subtilisin was evaluated over 45 minutes and compared to the free R. rubrum RubisCO. […] In contrast, the bound enzyme retains 75% of its activity upon exposure to the protease over this time range.

[4] = Subtilisin (0.5 μg/ml; 30° C./1 hr)
[5] = RubisCO alone or with pre-formed nanotubes added
[6] = pre-formed nanotubes from 10 mM monomer aged ~5 days, isolated by ultracentrifugation, re-suspended with 0.1 mg RubisCO in 1 mL buffer, 15 hrs

Substance: Pure R. rubrum RubisCO: RubisCO dimer from the bacterium Rhodospirillum rubrum, a CO2-fixing enzyme, free form
- % Activity retained (R. rubrum RubisCO [1]; Heat (65° C./10 min)): 77%
- Activity (R. rubrum RubisCO [1]; Heat (65° C./10 min)): 2248 nmol/min/mg
- % Activity retained (R. rubrum RubisCO [1]; [4]): 7%
- Activity (R. rubrum RubisCO [1]; [4]): 212 nmol/min/mg
- Activity (R. rubrum RubisCO [1]; untreated or no treatment stated): 2903 nmol/min/mg
- Activity (R. rubrum RubisCO [1]; untreated or no treatment stated, listed as 0.1 mg/ml R. rubrum RubisCO (after 80K spin)): 3007 nmol/min/mg
- % Activity retained (R. rubrum RubisCO [1]; untreated or no treatment stated, relative to pure R. rubrum RubisCO): 100%
- % Activity retained (R. rubrum RubisCO [1]; untreated or no treatment stated, relative to pure R. rubrum RubisCO, listed as 0.1 mg/ml R. rubrum RubisCO (after 80K spin)): 104%
- % Activity retained (R. rubrum RubisCO [2]; [5]): 100%
- Activity (R. rubrum RubisCO [2]; [5]): 3405 nmol/min/mg
- % Activity retained (R. rubrum RubisCO [2]; [6]): 100%
- Activity (R. rubrum RubisCO [2]; [6]): 1803 nmol/min/mg
- loss of activity in presence of subtilisin (R. rubrum RubisCO [3]): 80%
